B1: OR4K15 (parent)
chain: GUUAACGGUCAUAGGCCAUGGAAACUAGGAGCACCAUUUCGCUGCCAGUGAAGAAAUGAACAAAGAAAAUCUGGGCCAGGCAGGCAUCAAAAGAAAUAGUCUUGCGCUCAACCAGAAAGUCUGUAAUCAUUUUAAGGGUA

For 167 variants, self-cleavage results are on record in the RNAGym collection of RNA variant scans (doi:10.7554/elife.90254).

The variants in the data set derive from B1. Put plainly: self-cleavage, relative activity (ratio to wild type); higher = more cleavage; in vitro, sequencing; the parent is a self-cleaving ribozyme.
Consider A11G C105U, for which the self-cleavage is 0.09.

With A11G C85A, the self-cleavage came out at 1.53. Regarding U9C A125G, the self-cleavage was determined as 0.66.

Regarding C10U A82U, the self-cleavage was found to be 0.13. The same measure for U9C U38A: 1.98; for U9C U38C: 1.7; for U9C U26C: 1.06. The same measure for C10A G44A: 1.2; for U9C A118U: 0.88. Regarding U9C A118G, the self-cleavage came to 1.32. The same measure for C10U A125G: 0.61; for C10A U127C: 0.84. With A11U A52C the figure was 1.27; with U9C C35A, 1.71; with U12C A118G, 0.61. Consider A11G G115U, for which the self-cleavage was determined as 0.27. As for A11G U70G, the self-cleavage came out at 0.6. For the variant A11U C40A, the self-cleavage was 1.2.

As to C10A C77U, the self-cleavage was found to be 1.18.

As to A11C U97C, the self-cleavage is 1.26. With A11U A33G the figure was 0.98; with A11G U103A, 0.77.

With A11U A116U, the self-cleavage is 0.5.

With U12C A56G, the self-cleavage is 0.93. With A11U A54G, the self-cleavage stood at 0.

For U12C A96U, the self-cleavage worked out at 1.32. The same measure for A11G A89G: 0.59. With A11G A89U the figure was 1.34; with A11U A24G, 1.7; with A11G A95G, 1.73. The same measure for U12A A63G: 0.6; for A11G U57C: 0.63. Consider A11G G83A, for which the self-cleavage was determined as 1.23. Regarding A11G U19C, the self-cleavage was determined as 0.56. Regarding A11G U19A, the self-cleavage amounted to 1.08.

A11C A86G: the self-cleavage turned out to be 1.7. U12C A24G: the self-cleavage was determined as 1.09. As for A11G A54U, the self-cleavage is 1.09. With A11G U12C the figure was 1.07. As for A11G A98G, the self-cleavage worked out at 0.33. With A11G A118G the figure was 1.02; with U9C U49C, 1.67. As for U9C U49A, the self-cleavage was 1.56.

On to U9C U49G, for which the self-cleavage came out at 0.96. With U9C U72C the figure was 0.2; with U9C G106U, 0; with U9C G106A, 0.01.

Regarding A11G A24U, the self-cleavage was 0.53. Consider A11G A24C, for which the self-cleavage worked out at 1.51. Turning to A11G A24G, the self-cleavage was 1.02. In the case of U12A U108C, the self-cleavage amounted to 0.04. The same measure for U9G A68G: 0.72; for A11G U97G: 0.34; for A11U A13U: 1.5. Take U12A A118G: the self-cleavage was 1.04. For the variant A11U A90U, the self-cleavage stood at 1.19. With U12C A63G the figure was 1.43; with U12C A63C, 1.12; with U9G A92G, 1.15. With U9G U12C the figure was 0.29; with C10A A110G, 0.31. For the variant U12C A92G, the self-cleavage came to 0.58. The same measure for A11G A111C: 0.04; for A11G A111U: 0.11.

Turning to A11G G29A, the self-cleavage stood at 0.57. With U12A C77U the figure was 1.45; with A11U G41A, 0.96; with U12C A89C, 1.09. With C10U the figure was 0.84; with C10A, 1.11; with A11G U132A, 1.16. As for A11G U132C, the self-cleavage was 1.21. Regarding U12A A18G, the self-cleavage came out at 1.65. Consider A11U U120C, for which the self-cleavage is 0.69. For U12A G138A, the self-cleavage came to 1.5. The same measure for U12A A78G: 0.2. The same measure for U9C A134G: 1.55; for U12A U37C: 1.96; for U12A U130C: 1.21. On to U12A C109U, for which the self-cleavage was determined as 0.24. The same measure for U12C A110U: 1.26. With U9C G104A the figure was 0.06; with A11G A92G, 1.1. Regarding A11G A92U, the self-cleavage is 1.26. With A11U A126G the figure was 0.81; with U12A A91G, 1.57. With U12A A33U the figure was 1.4; with U12C A22G, 0.98.

In the case of A11U A68G, the self-cleavage is 0.99.

As for A11G U87C, the self-cleavage was determined as 1.14.

As for A11U U131C, the self-cleavage was 1.15. As to A11G A55G, the self-cleavage worked out at 0.92. The same measure for C10U A78G: 0.1. The same measure for U12A U26C: 2.17; for U12A U122A: 0.62. U9C G21A: the self-cleavage came out at 1.38.

A11G G136U: the self-cleavage is 1.19. With A11G G50U, the self-cleavage was determined as 1.02. With U9C U39A the figure was 1.33; with U9C U39C, 1.45; with U12A U139C, 1.59. With U12C A51G the figure was 0.87; with U9C U97C, 1.09. On to C10A A30G, for which the self-cleavage worked out at 0.63. For A11C A60G, the self-cleavage was found to be 1.07.

With U12A U70C, the self-cleavage was 0.41. For the variant A11C A27U, the self-cleavage was 1.24.

As for A11G G58U, the self-cleavage turned out to be 0.79. The same measure for A11G A51U: 0.82. For the variant A11U G15A, the self-cleavage amounted to 1.97.

On to C10U U19C, for which the self-cleavage came to 1.34.

For the variant U9C U43G, the self-cleavage came to 2.16.

Turning to U9C U43A, the self-cleavage was 1.24. With U9C C45G the figure was 0.85; with U9C A126G, 1.19. The same measure for U9C U124C: 1.25; for U12A A55U: 2.25; for U12A A55G: 1.3. The same measure for U12A G31A: 1.75; for U12C A78G: 0.31; for U9C U57C: 1.07.

For the variant U9C U57G, the self-cleavage worked out at 1.07. With A11U U43C the figure was 1.44; with A11G C81U, 0.75. On to U12C A67G, for which the self-cleavage worked out at 1.33. The same measure for A11G A117G: 1.19; for A11U A94G: 0.71. Regarding C10U A118G, the self-cleavage came out at 0.33.

Consider U9G C45G, for which the self-cleavage stood at 0.5. For the variant U12A U38C, the self-cleavage amounted to 1.4. Regarding A11G U108C, the self-cleavage came out at 0.01.

Regarding C10A A69G, the self-cleavage is 0.29. A11U A62C: the self-cleavage stood at 0.99. With A11U A62G the figure was 0.96; with A11G A96G, 1.18. With A11U A36U the figure was 0.78. The same measure for C10U G14U: 0.49; for A11G G14A: 1.31; for A11C A63G: 1.91. Turning to A11G C61A, the self-cleavage came to 0.69. With A11G A60G, the self-cleavage was 0.86. With A11U U70C the figure was 0.67.

On to A11G A13U, for which the self-cleavage was found to be 0.72. With A11G A13G, the self-cleavage worked out at 1.26. The same measure for U9C G31A: 1.12; for C10U A22U: 1.21; for C10U G31U: 1.22. The same measure for A11G C46U: 0.77; for U9G U108C: 0.05; for C10U C77U: 0.98. Consider A11C U38C, for which the self-cleavage turned out to be 1.72. The same measure for A11G G74C: 0.38; for A11G G74A: 0.41; for A11G G74U: 0.24. Consider U9C C40U, for which the self-cleavage turned out to be 1.45. With A11C A52U the figure was 1.5. Consider U9C U122A, for which the self-cleavage was determined as 1.06. The same measure for A11G A52G: 1.03; for U12C A98G: 0.74; for A11G A36U: 1.12.

Take A11C U103C: the self-cleavage came to 0.98.

Consider U9C G65A, for which the self-cleavage came to 2.38. The same measure for U9C A98G: 0.22; for A11C A91G: 1.67. In the case of C10U A94G, the self-cleavage was 1.27. The same measure for U12C A86G: 0.8. With A11G U120A the figure was 0.58.
